The values that follow come from patent publication US7569660 (UNIVERSITY OF CHICAGO, dated 2009).

This series concerns the molecule itself.

B1: NM R2E2 repeat expansion variant (other)
chain: MSDSNQGNNQQNYQQYSQNGNQQQGNNRYQGYQAYNAQAQPAGGYYQNYQGYSGYQQGGYQQYNPQGGYQQYNPQGGYQQYNPDAGYQQQYNPQGGYQQYNPQGGYQQQFNPQGGRGNYKNFNYNNNLQGYQAGFQPQSQGMSLNDFQKQQKQAAPKPKKTLKLVSSSGIKLANATKKVGTKPAESDKKEEEKSAETKEPTKEPTKVEEPVKKEEKPVQTEEKTEEKSELPKVEDLKISESTHNTNNANVTSADALIKEQEEEVDDEVVND
Take B1: the “rate of conversion to a β-sheet rich structure relative to wild-type NM” value is around 2 fold.
